Measurements reported in IntAct's records for PubMed 20118266.

B1: Flagellar biosynthesis protein FlhA (Salmonella typhimurium), P40729 (parent)
chain: MANLVAMLRLPSNLKSTQWQILAGPILILLILSMMVLPLPAFILDLLFTFNIALSIMVLLVAMFTQRTLDFAAFPTILLFTTLLRLALNVASTRIILMEGHTGAAAAGKVVEAFGHFLVGGNFAIGIVVFIILVIINFMVITKGAGRIAEVGARFVLDGMPGKQMAIDADLNAGLIGEDEAKKRRSEVTQEADFYGSMDGASKFVRGDAIAGILIMVINVVGGLLVGVLQHGMSIGSAAESYTLLTIGDGLVAQIPALVISTAAGVIVTRVSTDQDVGEQMVGQLFSNPRVMLLAAAVLGLLGMVPGMPNLVFLLFTAALLGLAWWLRGREEKAPEEPQPVKMPENNSVVEATWNDVQLEDSLGMEVGYRLIPMVDFQQDGELLGRIRSIRKKFAQDMGFLPPVVHIRDNMDLQPARYRILMKGVEIGSGDAYPGRWLAINPGTAAGTLPGEKTVDPAFGLDAIWIESALKEQAQIQGFTVVEASTVVATHLNHLIGQFSAELFGRQEAQQLLDRVSQEMPKLTEDLVPGVVTLTTLHKVLQNLLAEKVPIRDMRTILETLAEHAPLQSDPHELTAVVRVALGRAITQQWFPGNEEVQVIGLDTALERLLLQALQGGGGLEPGLADRLLAQTQEALSRQEMLGAPPVLLVNHALRPLLSRFLRRSLPQLVVLSNLELSDNRHIRMTATIGGK
partner: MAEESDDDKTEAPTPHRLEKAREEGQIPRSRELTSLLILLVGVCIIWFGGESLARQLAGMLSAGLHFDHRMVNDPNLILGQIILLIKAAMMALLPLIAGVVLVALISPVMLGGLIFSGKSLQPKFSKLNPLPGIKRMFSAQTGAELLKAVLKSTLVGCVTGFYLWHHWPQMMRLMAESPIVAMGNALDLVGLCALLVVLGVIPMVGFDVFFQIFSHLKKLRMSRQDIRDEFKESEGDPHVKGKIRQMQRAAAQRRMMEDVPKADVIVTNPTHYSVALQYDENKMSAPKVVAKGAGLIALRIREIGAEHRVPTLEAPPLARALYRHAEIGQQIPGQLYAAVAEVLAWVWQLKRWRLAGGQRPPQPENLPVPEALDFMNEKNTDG
B2: Flagellar biosynthesis protein FlhA (Salmonella typhimurium), P40729 (parent)
chain: B1 chain

Variants of: B1
Conditions: with flhb_salty flhB

Variant	effect of a mutation on the interaction
G368C	increasing interaction strength

Variants of: B2
Conditions: with flij_salty fliJ

Variant	effect of a mutation on the interaction
G368C	increasing interaction strength
